In patent publication US20180256687A1:
Read-outs that look alike come from different tables or passages of the source.

Assays:
[1] = biological target: Protein tyrosine phosphatase receptor type gamma (PTPRG) (human) (UniProt P23470); assay: cell-based or functional assay
[2] = biological target: PTP Receptor type C (PTPRC or CD45) (human) (UniProt P08575); assay: cell-based or functional assay
[3] = biological target: JAK2 (Janus protein-tyrosine kinase 2) (human) (UniProt O60674)
[4] = biological target: JAK2 (Janus protein-tyrosine kinase 2) (human) (UniProt O60674); assay: negative-control pull-down on nickel gel; lysate of resting human monocytes; mean of 3 experiments

Sequence of PTP Receptor type C (PTPRC or CD45) (human) (P08575 26-1306 limits assumed): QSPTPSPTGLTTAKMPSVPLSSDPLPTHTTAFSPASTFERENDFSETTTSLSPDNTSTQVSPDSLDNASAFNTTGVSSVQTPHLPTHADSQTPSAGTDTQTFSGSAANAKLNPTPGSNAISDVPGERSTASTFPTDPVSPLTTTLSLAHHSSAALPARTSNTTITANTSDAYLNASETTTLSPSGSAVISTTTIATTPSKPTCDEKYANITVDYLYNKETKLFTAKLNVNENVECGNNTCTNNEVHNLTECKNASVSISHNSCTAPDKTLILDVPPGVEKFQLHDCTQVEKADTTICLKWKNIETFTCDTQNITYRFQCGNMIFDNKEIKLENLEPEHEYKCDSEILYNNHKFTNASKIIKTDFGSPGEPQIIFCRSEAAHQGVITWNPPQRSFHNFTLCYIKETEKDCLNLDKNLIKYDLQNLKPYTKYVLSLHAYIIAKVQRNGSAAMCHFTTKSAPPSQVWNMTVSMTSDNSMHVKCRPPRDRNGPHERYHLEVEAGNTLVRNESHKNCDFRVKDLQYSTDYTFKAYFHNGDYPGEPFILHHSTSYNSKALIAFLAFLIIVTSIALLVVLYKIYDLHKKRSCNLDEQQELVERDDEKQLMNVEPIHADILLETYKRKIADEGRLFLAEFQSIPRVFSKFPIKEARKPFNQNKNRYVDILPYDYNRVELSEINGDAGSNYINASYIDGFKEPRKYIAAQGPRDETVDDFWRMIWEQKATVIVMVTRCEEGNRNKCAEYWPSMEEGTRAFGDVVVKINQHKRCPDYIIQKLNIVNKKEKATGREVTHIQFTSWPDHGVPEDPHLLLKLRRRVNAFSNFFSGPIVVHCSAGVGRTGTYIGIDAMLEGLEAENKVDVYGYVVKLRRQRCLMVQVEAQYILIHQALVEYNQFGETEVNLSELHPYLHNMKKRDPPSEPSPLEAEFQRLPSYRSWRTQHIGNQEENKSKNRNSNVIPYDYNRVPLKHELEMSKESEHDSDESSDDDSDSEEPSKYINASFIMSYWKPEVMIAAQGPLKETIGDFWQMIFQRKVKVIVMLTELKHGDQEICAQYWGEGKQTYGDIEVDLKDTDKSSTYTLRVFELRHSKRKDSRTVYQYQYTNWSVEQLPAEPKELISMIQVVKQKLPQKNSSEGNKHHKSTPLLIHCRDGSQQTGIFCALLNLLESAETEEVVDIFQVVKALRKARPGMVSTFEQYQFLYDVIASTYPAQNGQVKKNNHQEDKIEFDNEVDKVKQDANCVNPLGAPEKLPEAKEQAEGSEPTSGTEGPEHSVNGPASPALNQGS

P1 (Penetratin 1) control peptide
phosphatase activity (pNPP, absorbance at 405 nm, percent fold increase over the blank) in monocyte membrane fractions, P1 control (percent fold increase over the blank) [1]: 16

P1-WD Trojan peptide (Penetratin fused to the PTPRG wedge domain)
phosphatase activity (pNPP, absorbance at 405 nm, percent fold increase over the blank) in monocyte membrane fractions, P1-WD 50 micromolar (percent fold increase over the blank) [1]: 34.6 | phosphatase activity (pNPP, absorbance at 405 nm, percent fold increase over the blank) in monocyte membrane fractions, P1-WD 100 micromolar (percent fold increase over the blank) [1]: 86.7 | phosphatase activity (pNPP, absorbance at 405 nm, percent fold increase over the blank) in monocyte membrane fractions, P1-WD 200 micromolar (percent fold increase over the blank) [1]: 109 | phosphatase activity (pNPP, absorbance at 405 nm, percent fold increase over the blank) in PMN membrane fractions, P1-WD 50 micromolar (percent fold increase over the blank) [2]: 5.15 | phosphatase activity (pNPP, absorbance at 405 nm, percent fold increase over the blank) in PMN membrane fractions, P1-WD 100 micromolar (percent fold increase over the blank) [2]: 8.54 | phosphatase activity (pNPP, absorbance at 405 nm, percent fold increase over the blank) in PMN membrane fractions, P1-WD 200 micromolar (percent fold increase over the blank) [2]: 12.9

TAT-eGFP
JAK2 band (anti-JAK2 Western blot of pull-down), mean [3]: 1.5 | JAK2 band (anti-JAK2 Western blot of pull-down), mean [4]: 4.4
